From paper PMC7343212, “Lactoferrin-Hexon Interactions Mediate CAR-Independent Adenovirus Infection of Human Respiratory Cells” (Journal of Virology, 2020)
pKd: −log10 of the molar value.

Columns and labels:
Assay in all cases: SPR
[1] = biological target: HAdV-B35 hexon (human adenovirus B35 (strain Holden))
[2] = biological target: HAdV-A31 hexon (human adenovirus A31 (strain 1315/63))
[3] = biological target: HAdV-C5 hexon (human adenovirus C5 (strain Ad75)) (UniProt P04133)

human lactoferricin 1-49 (hLfcin1-49) (peptide)
pKd [1]: 4.66 | pKd [2]: 3.73 | pKd [3]: 6.14

human lactoferrin (hLF) (natural protein)
pKd [1]: 6.82 | koff [1]: 0.00354 s⁻¹ | kon [1]: 25000 M⁻¹ s⁻¹ | pKd [2]: 6.08 | koff [2]: 0.0101 s⁻¹ | kon [2]: 12000 M⁻¹ s⁻¹ | pKd [3]: 7.54 | koff [3]: 0.00154 s⁻¹ | kon [3]: 53000 M⁻¹ s⁻¹
